Data: patent US20120087949, “OLIGONUCLEOTIDE MICELLES” (University of Florida Research Foundation, Inc., published 2012)

Legend:
[1] = test system: unidentified cell-surface target of sgc8 on CCRF-CEM cells; conditions: 5'-diacyl lipid-(PEG)4, membrane anchored; CITED; value for sgc8 aptamer; CEM cell aggregation with lipo-sgc8-TMR shown here (FIG. 13A); cited from earlier work
[2] = target: T1, IGHM (immunoglobulin heavy mu chain), on Ramos cells (UniProt P01871 P01871:1-474); assay: flow; Ramos cells; based on lipid unit concentration; 0.116 nM if 1000 copies per micelle; conditions: tags: endogenous on Ramos cells (ATCC CRL-1596); chain copies: 2; label: 3'-FAM
[3] = target: T1, IGHM (immunoglobulin heavy mu chain), …; assay: flow; free TDO5 on Ramos cells; compared with micelle; elsewhere quoted as 74 nM (p179, CITED); conditions: tags: endogenous on Ramos cells (ATCC CRL-1596); chain copies: 2; label: FITC

T1 sequence (P01871 whole entry, one chain of several): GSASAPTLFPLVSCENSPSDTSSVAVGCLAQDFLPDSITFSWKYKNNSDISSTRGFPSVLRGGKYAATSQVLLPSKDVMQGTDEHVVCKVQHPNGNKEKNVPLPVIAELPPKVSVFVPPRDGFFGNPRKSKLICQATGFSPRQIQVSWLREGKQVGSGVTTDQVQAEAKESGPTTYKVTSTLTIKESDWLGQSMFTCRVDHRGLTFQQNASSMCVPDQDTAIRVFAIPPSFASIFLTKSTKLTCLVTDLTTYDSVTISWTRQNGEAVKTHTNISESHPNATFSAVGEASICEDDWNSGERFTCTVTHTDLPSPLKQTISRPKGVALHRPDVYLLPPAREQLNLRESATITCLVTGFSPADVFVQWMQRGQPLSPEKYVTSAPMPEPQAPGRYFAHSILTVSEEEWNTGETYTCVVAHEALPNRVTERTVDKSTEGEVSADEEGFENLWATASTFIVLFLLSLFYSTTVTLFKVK

For “TTTTTTTATCTAACTGCTGCGCCGCCGGGAAAATACTGTACGGTTAGA [Lipo-sgc8-TMR]”, the Kd [1] is listed as 0.8 nM.

B1: TDO5-micelle (lipid-TDO5) (ssDNA)
DNA: AACACCGGGAGGATAGTTCGGTGGCTGTTCAGGGTCTCCTCCCGGTGA
modifications: 5'-diacyl lipid tail-(CH2CH2O)24; self-assembled micelle
In the case of B1, the Kd [2] is reported as 116 nM.

B2: TDO5 (ssDNA)
DNA: B1 DNA
Work on B2 yielded a Kd [3] of 88 nM.
